Literature values as cited in article PMC5669632.

Experiments:
His25 = His25 (UniProt position 25, HGSALHWRAAG); assay: electrophysiology; conditions: not stated for the quoted data (the present recordings are said to follow the same earlier protocols)
Glu118 = Glu118 (UniProt position 118, WFVGREQERRG); assay: electrophysiology; conditions: not stated for the quoted data (the present recordings are said to follow the same earlier protocols)
[1] = closed channel state (model parameter pKa closed)
[2] = open channel state (model parameter pKa open)

| Substance | pKa (His25; [1]) | pKa (His25; [2]) | pKa (Glu118; [1]) | pKa (Glu118; [2]) |
| --- | --- | --- | --- | --- |
| KcsA potassium channel, E71A (non-inactivating control channel) (Streptomyces lividans; E71A) | 4.8 (N/A) | 7.6 |  |  |
| KcsA potassium channel, H25R/E71A (Streptomyces lividans; H25R;E71A) |  |  | 5.0 (0.1) | 6.2 (0.1) |
